Experiment: soluble fraction after stress (log2 fold change); higher = more stays soluble; pooled small domains, quantitative proteomics
Conditions: stress: 75 degC
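Also: 20 min heating vs room temperature control held 20 min.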

HMNDGEIAAPVSGTLQSFKVEDGQTVSEGDLVAVMEAMKMETQILATKGGTIRLLVKEGDYLQAGHALMTI
soluble fraction (log2): -0.667

HMNDGTIRVGTNVTIKPSAKRWATGQNIYYGVKGKTYKVIQMNGNRLLLDKVISWINKGDVYVPGS
soluble fraction (log2): -0.741

HMNDIDRFIEALIEQDTLPGTNSRINEDVISEMKMMTSVEDIKAYAIATVGLTGGQVNNALINSGL
soluble fraction (log2): -0.072

HMNDIVKIYTTHRIINIEGLAKNEPIMLYTINGTLIDKSVSSNGSAQLHVKGIGVYLVKWANNIVKVIVPN
soluble fraction (log2): -4.81

HMNDLDSLWDIWENLNERGIGDKSEEGQELRDAIREFIDTNELNVRVTRNKTNEDLLTDIEDALEVAKNS
soluble fraction (log2): -0.588

HMNDLIFSTLAEYDRDTITEIISVVDNTRGIGYEVELVRKDLIAMAAQAEARRDYLPSVIGDVEVFKRNLL
soluble fraction (log2): 0.354

HMNDNQNKQMLWELLKDNRAFDNFDNKDYKTIIHLFNETVNTIDHRTPNLDLIKKNKIFIQDIMQKLSNL
soluble fraction (log2): -1.46

HMNDSGIIGVVINDHEKYEGHVLEDGFISSSLSALSREIDVAGYFMMVKTVVYEGFFQELKGIGNV
soluble fraction (log2): 0.16

HMNDTNEEAVLSIILKNPQATQGAIAKEVGASLSTVKRIMRNLQKSGKLRREGTNRNGSWVVTGQK
soluble fraction (log2): -0.289

HMNDTPPELRAALDLLGLKWPLASVELRARYKDLAKQHHPDATGGDKQAEERLKDINRAYSLLKHRLAKQ
soluble fraction (log2): -0.143

HMNDTVGMNIRRLRKERGMTQGDLADKAGIQRETISKYESNKLTPPSYNLESIEKALKVPAGTLAQ
soluble fraction (log2): 0.176

HMNDYIGVDRAKEIALNHARMNESDVQFAKAKLENDDGVVEYEIEFYFGRTEYDYTIDAVSGNIIEYDVEY
soluble fraction (log2): -1.86

HMNEDDQLLKVLLAEPLRLEELYNLDLKPQGPYNLQTWIMVHLTELERDGLIARFPDGRYGPAR
soluble fraction (log2): -2.03

HMNEFAYLIKISPEHNNNRYYRMVAEGDNFRIEMGRIGASPVQMKRPMYLWNETYQKKLQEGYTDRTSYTS
soluble fraction (log2): -1.85

HMNEIDLEAAKRIALQNAGVESADAAFTKAQLDYDDGVAEYEIEFVAGSTKYEYEISAANGTVLKSSKESV
soluble fraction (log2): -0.0387

HMNEIEIHINKLFGKISDSKRKQELMQEITQNLNEKVSDLVSQGQTREQAVKKAIEDFGDIDDLKDELDN
soluble fraction (log2): 0.312

HMNEIYHQIKVDNVSDDDISLFQYSGIEFDHADYRRGEYIEFAISNRDLSILNNLGYEYQVVHH
soluble fraction (log2): -0.872

HMNEKAALIFNEWSDFVSKDDEANAQIKFDELITLYKKTGYTKIALLEVATKQASNGDIEGALAKYSLLID
soluble fraction (log2): 0.128

HMNEKTGTLTVYSSPGWAKVYIDGEYKGITPVMANLTYGDHYVKLTLDGYDSIGNHIDVNSPDQSYTGKF
soluble fraction (log2): -0.768

HMNELIGVEQLQDLREAIADHGFAEQRVLNWLYQATKGQVSRLEQLPLPMLTTLHKKLGQWADAEAAASSA
soluble fraction (log2): 0.3

HMNELVEATITTQTGRLDKVLTTIFPQYSRSQIQQLLEQGNILVNETLQKGKYKVKAGDKISLTEPAIKE
soluble fraction (log2): 0.331

HMNEMSDTITRLLDAAETGIRLRGYHAVSFRDLAEELGIKSSSVHYYFRQKEDLGLAVVERY
soluble fraction (log2): 0.000622

HMNENDPRVIKTRRLLLDSFVVLVRKKDFTSISVKDITDSAQVNRATFYAHFQDKYDILEYMVID
soluble fraction (log2): 0.0912

HMNENNFIVAMRERLAQFIETSGTSQSRIAKELGVSKSTVSLFLGGTYGGNNQELARNLEQLLSMGAARR
soluble fraction (log2): -1.45

HMNEPMITEVKRINYGSIKEIAKNLDVFKGKNGTVIIDERTNTLILTDLSENIEKMLWSIEITD
soluble fraction (log2): -0.927

HMNERTKIPLRKIEIGQAVYVDTLEKVGTVIDIQGKQFKVDLAGLPITVAARNLFYPLPQEAKP
soluble fraction (log2): -0.736

HMNESADMPDVVNMSLEAAKSQLEGMGLKVKVENVEDDSVEENHVIKTSPVSGEKVKLGTTVTLTVSKGR
soluble fraction (log2): -0.116

HMNESEALIARIENLPPIEDLTEKHAEEVKALMTVYSKLKMSDRILVTNYGVLKKDFDALVKKGFLTNED
soluble fraction (log2): -0.321

HMNETHANKVYNFLKKKKKPLSAYEILKELASEGISAPTTIYRALNKLVSNGLIHKIESLNAWTV
soluble fraction (log2): 0.251

HMNETLKQIRINALQYSEKDMATKLGLPLSEYKEIENDKPLNFTLLIRLSQAVGKTIDDLLNAQ
soluble fraction (log2): -0.95

HMNEVETWSVQADGATGRIDKWLAEQNEWSRSQVQEWLKAGRVEVDGRVVKPNYKLSGTESIAVHIPEAV
soluble fraction (log2): -0.244

HMNEWVSVEERLPTDERPVLAFIGYADTMNGFITTSYYFRFDPDPHWLGEGLIPVGLKTLFWMPLPAP
soluble fraction (log2): 0.277

HMNEYSLVPDIYGMTYDDALSSLRNVGLDGRLALASTNEDLANADTRVVWQSKEAGSIIDKGSNVMFVID
soluble fraction (log2): -0.01

HMNFAERIKELRKEKGITQIDLAEAVGLSKGTVAMWEVDKREANFDTLNKLSDYFQVSIDYLLGRSNDRS
soluble fraction (log2): -0.0785

HMNFDVETGLPLDSRLVVSGLIQRDGINSLKRYEGMIVYVESEAKNYQLVGGISNTDWAELS
soluble fraction (log2): -1.35

HMNFGEVLQTKRKSMGLTQEDLADKLFVSSETISNWETNKTTPDIDNVIRISQLFDISLNNLLL
soluble fraction (log2): -0.415

HMNFIPGEKINLKIVQEGKEKNQGVGYLSDGTMVIVENGSQKLGQDVEVVVIKNIQSSAGKIVFGDISK
soluble fraction (log2): 0.158

HMNFSRQREIIYEQVRNFPVHPTAEEVYRALKNDNPNLSLGTVYRNLNQLSEAGMLLKIPIADGSDRFDGR
soluble fraction (log2): -0.655

HMNFTETENRIYEEILKNVKQHKKKTVVQIAEKVDVAPSYVIKVAKKLGYSGLNEMWYSLSGIY
soluble fraction (log2): -0.916

HMNFTMERLYTKELTSEDIDEIKKELNSMGYTEGVEFNIIKGDKTSFIMAERQLKAKMLSHLSDLGLPRGA
soluble fraction (log2): -0.245

HMNGAAAEQARKQLMTALKASEFIAQDKLDEWLDALALPQEKRSAIIDAVDELDYEEAISELEN
soluble fraction (log2): 0.287

HMNGDWISARQEYYIRGLWDLASRAKDEASLQAMLQRIAGVTQIEWISKEKATKVILALRDIAKK
soluble fraction (log2): -1.6

HMNGELSQRQWQILRLIAQGLSNEQMARQLFVAPSTIKTHINHLYAKLGVRTRAEAQAIARQKLMA
soluble fraction (log2): -1.23

HMNGIFEYSDAKKVPSLVEIENAYRRARVNGAEKFAVIINGEYFGYNPQKRGIYKLNDGEYQIL
soluble fraction (log2): -0.428

HMNGKPDMTPIPAGSRNNDLHAWAYGRLLNHPDNAEAIRRDLFERGQTSGLKESELETIWQSIRRQLGGD
soluble fraction (log2): 0.44

HMNGKTIEVPDITEKSIAEAQLILNQKKLRYNVVDSTRFDPAYLPFSVLTQEPEAGDEVKKNRTIYITLNP
soluble fraction (log2): -0.183

HMNGLDSVLRNWARQTLASGGENLLGDLTDHVTRLIISEALIMTGGNRTRAAELLGLSRPTLLAKMDKLNL
soluble fraction (log2): -2.92

HMNGPTPEEKLAVVNAEFVRQYGDEYEELELEGEELEEYYQKALNKEDFEYDIPHLPGWDEP
soluble fraction (log2): -0.174

HMNHHEIIMKNIDTLLKEKNISISKLEKSLGISNGYISRLRNGKYNFSLDLLLKLAKKFKISIDYLLTDFD
soluble fraction (log2): -0.317

HMNHNPSIARKISREIKRGAPPESLLNLARTVNDSYYRSLSFVSIAYSIKGKKSKELFEEAISNLT
soluble fraction (log2): -0.107

HMNHTIEENDRVLILDPRGKKYLITVTNRVFHTNLGKLDISELIGKNYGDKIKSHMGKNFSILKPNLIDYI
soluble fraction (log2): -0.0314

HMNIAEIGQKVAQQRVALGISQERLAKLSDLSRSTIHHLEHGTLHEIGAAKLFKLLSLLDIQLK
soluble fraction (log2): -2.07

HMNIDQAFISDLERMIMPDISKYELMDIISIMENSGFTIKVEGTGNEVRQVIKPGSKLKKGQKIKIKL
soluble fraction (log2): -2.03

HMNIEIIEVQEESTPSEISKIISTESTKIIEDLLNLGVMASLETPLKNQDIEKLLEGYGYIVDIKP
soluble fraction (log2): 0.0251

HMNIGEKIKKIRTQQNKSTYELADIINKNGFKISQSAISKIENGRKKIDIETLEEIAKALDIEVDLLIT
soluble fraction (log2): -0.153
